Test results published in patent publication US20140120109A1 (Regeneron, published 2014).

B1: H4H1704N (antibody, human IgG4 S228P, V domains shown)
VH: EVQLVESGGGLVQPGGSLRLSCAVSGFTFSSYWMSWVRQAPGKGLEWVANIKEDGSEKNYVDSVKGRFTLSSDNAKNSLYLQMNSLRAEDTAVYYCAREDYDSYYKYGMDVWGQGTAVIVSS
VL: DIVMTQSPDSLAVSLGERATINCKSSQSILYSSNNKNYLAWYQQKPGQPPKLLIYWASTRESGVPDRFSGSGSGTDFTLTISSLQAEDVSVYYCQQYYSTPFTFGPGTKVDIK
notes: human IgG4(S108P) form of H2M1704N
B2: H4H1804N (antibody, human IgG4 S228P, V domains shown)
VH: QVQLHQWGAGLLKPSETLSLTCAVSGVSFSDYHWAWIRQSPGKGLEWIGDINHRGRTNYNPSLKSRVTISLDTSGNPFSLKLTSVTAADTAVYYCARDFPNWVFDSWGQGILVTVSS
VL: EIVLSQSPGTLSLSPGERATLSCRASQSVSSSFLAWYQQYPGQAPRLLIYGASRRATGIPDRFRGSGSGTDFTLTISRLEPEDFAVYYCQQYGSSPLTFGGGTKVENK
notes: human IgG4(S108P) form of H2M1804N
B3: H4H1805N (antibody, human IgG4 S228P, V domains shown)
VH: QVQLQQWGAGLLKPSETLSLTCAVYGGSFTGFYWSWIRQPPGKGLEWIGEINHRGNTNYNPSLKSRVTMSVDTSKNQFSLNMISVTAADTAMYFCASPFYDFWSGSDYWGQGTLVTVSS
VL: DIMLTQTPLTSPVTLGQPASISCKSSQSLVHSDGNTYLSWLQQRPGQPPRLLFYKISNRFSGVPDRFSGSGAGTDFTLKISRVEAEDVGVYYCMQATQFPLTFGGGTKVEIK
notes: human IgG4(S108P) form of H2M1805N
B4: H4H1725P (antibody, human IgG4 S228P, V domains shown)
VH: QVQLVQSGAEVKKPGASVKVSCKASGYTFTGYYMHWVRQAPGQGLEWMGWIKPKSGGTNYVQKFQGRVTMTRDTSINTAYMELNNLKSDDTAVYYCATGGSQDASDFWGQGTMVTVSS
VL: DIQMTQSPSSVSASVGGRVTITCRASQDISIWLAWYQQKPGKAPNLLIYAASSLQSGVPSRFSGSGSGTDFTLTISSLQPEDFATYYCQQADSFPLTFGGGTKVEIK
B5: H4H1681N (antibody, human IgG4 S228P, V domains shown)
VH: EVQLLESGGGLVQPGKSLRLSCAVSGFTFSTYGMNWVRQAPGKGLEWVSSISGTGRTTYHADSVQGRFTVSRDNSKNILYLQMNSLRADDTAVYFCTKERGDYYYGVFDYWGQGTLVTVSS
VL: DIQMTQSPSTLSASVGDRVTITCRASQTISSWLAWYQQTPEKAPKLLIYAASNLQSGVPSRFSGSGSGTEFTLTISSLQPDDFATYYCQQYHRSWTFGQGTKVEIT
B6: H4H1817N (antibody, human IgG4 S228P, V domains shown)
VH: QVQLQQWGAGLLKPSETLSLTCAVSGGSFSDYFWTWIRQPPGKGLEWIGEISHSGRTNYNPSLKSRVTISVDTSMSQFSLKMTSVTAADSAVYYCARDYPNWVFDYWGQGTLVTVSS
VL: EIELTQSPGTLSLSPGEGATLSCRASQSVFNSYLAWYQQKPGQAPRLLIYGASRRATGIPDRFSGSGSGTDFTLTISRLEPGDFAVYFCQQYGNSPLTFGGGTKVEIK
notes: human IgG4(S108P) form of H2M1817N
B7: H4H1742P (antibody, human IgG4 S228P, V domains shown)
VH: EVQLVESGGGLVQPGGSLRLSCAASGFTFSNYVMNWVRQAPGKGLEWVSVISGSGGSTHYADSVKGRFTISRDNSKDALYLQMNSLRAEDTAVYYCAKGPLEAYYYYNGMDVWGQGTTVTVSS
VL: DIQLTQSPSFLSASVGDRVTITCWASQAISSYLAWYQHKPGRAPKLLIYSTSTLQSGVPSRFSGSGSGTEFTLTISSLQPEDFATYYCQQLNSYPTFGQGTKLEIK
B8: H4H1745P (antibody, human IgG4 S228P, V domains shown)
VH: EVQLVESGGGLVQPGGSLRLSCAASGFTFSSYAMTWVRQAPGKGLEWVSGVSGRGGSTYYADSVKGRFTISRDNSKNTLYLQMNSLRAEDTAVYYCAYWDISSFDYWGQGTLVTVSS
VL: DIQLTQSPSFLSASVGDRVTITCWASQGISTYLAWYQQKPGKTPKLLIYAASTLQSGVPSRFSGSGSGTDFTLTISSLQPEDFATYYCQQFNSYPLTFGGGTKVEIK
B9: H4H1818N (antibody, human IgG4 S228P, V domains shown)
VH: RLQLVESGGGLVKPGGSLKLSCAASGFTISDYYMSWIRQAPGKGLEWVSYIGGSGSTIYYADSVKGRFTISRDNAKNSLYLQMNSLRAEDTAVYYCAREDADSYYYYGMDVWGQGTTVTVSS
VL: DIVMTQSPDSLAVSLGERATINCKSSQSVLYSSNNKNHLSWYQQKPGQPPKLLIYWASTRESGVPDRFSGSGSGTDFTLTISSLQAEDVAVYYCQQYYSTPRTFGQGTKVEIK
notes: human IgG4(S108P) form of H2M1818N
B10: H4H1750P (antibody, human IgG4 S228P, V domains shown)
VH: QVQLVESGGGVVQPGRSLRLSCVASGFTFSNYGMHWVRQAPGKGLEWVAVISYDGNNDLYSDSVKGRFTISRDNAKNALSLQMTSLRAEDTAVYYCARDSTMTPYYYHGIDVWGQGTTVTVSA
VL: DIQMTQSPSSLSASVGDRVTITCRASQDIRNDLGWYQQKPGKAPKRLIYAASSLQSGVPSRFSGSGSGTDFTLTISSLQPEDFATYYCLQHNSYPPTFGQGTKVEIK

What follows are binders tested against T1, full length human TL1A expressed on HEK293 cells (human, UniProt O95150 1-251) (assay: flow, HEK293/hTL1A, mAb 0.1 ug/ml + 1 ug/ml soluble hTL1A).
T1 construct: also called HEK293/hTL1A; cell-surface hTL1A
T1 sequence: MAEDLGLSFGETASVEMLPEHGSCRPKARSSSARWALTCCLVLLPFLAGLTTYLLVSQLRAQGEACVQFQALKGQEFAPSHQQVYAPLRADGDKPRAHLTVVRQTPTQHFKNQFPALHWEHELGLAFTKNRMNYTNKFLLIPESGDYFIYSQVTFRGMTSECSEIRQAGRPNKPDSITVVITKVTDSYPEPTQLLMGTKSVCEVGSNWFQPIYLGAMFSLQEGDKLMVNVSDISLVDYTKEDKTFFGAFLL
Protocol: (§1) Human embryonic kidney 293 cells stably transfected to over-express cell-surface hTL1A were first stained in a flow cytometric experiment with eight anti-hTL1A antibodies at four concentrations (1, 0.1, 0.01, and 0.003 μg/ml). […] The lowest antibody concentration providing significant staining levels was then used in a competition binding experiment. A negative isotype control antibody (human IgG4) was used at 1 μg/ml to define the background signal. For the competition experiment, eight antibody samples, at the minimal concentrations identified above, were first treated with soluble hTL1A expressed from CHO cells at concentrations ranging from 0.03 μg/ml to 10 μg/ml. After pre-incubation for 30 min on ice, the antibody/hTL1A mixture was added to 293/HEK-hTL1A cells that had been isolated by centrifugation in a 96-well conical plate. After incubation for an additional 10 minutes on ice, the cells were washed. The secondary reagent, anti-h Fcγ-APC F(ab′)₂, was added to all wells at a 200-fold dilution to detect bound antibodies. Samples were incubated for 15 minutes on ice, away from light, and then washed. Cells were processed on an BD™ LSR II Flow Cytometer (BD Biosciences) to detect anti-hTL1A antibodies bound to the cell surface, and data were analyzed using FlowJo software (version 8.8.6; Tree Star Inc.). Maximum signal: Anti-hTL1A antibody binding in the absence of soluble hTL1A; Minimum signal: Signal recorded when […] of isotype control antibody was added in place of the anti-hTL1A antibody. NT: Not tested.

Binder | MFI
B1 | 26
B2 | 33.7
B3 | 25.1
B4 | 29.2

What follows are binders tested against T1, full length human TL1A expressed on … (assay: flow, HEK293/hTL1A, mAb 0.1 ug/ml + 0.03 ug/ml soluble hTL1A).
Protocol: as §1

Binder | MFI
B1 | 163
B2 | 126
B3 | 156
B4 | 207

Each binder was assayed against T1, full length human TL1A expressed on … (assay: flow, HEK293/hTL1A, mAb 1 ug/ml + 0.3 ug/ml soluble hTL1A).
Protocol: as §1

Binder | MFI
B5 | 236
B6 | 23.6
B7 | 44.7
B8 | 115

The binders below were run against T2, full length rat TL1A expressed on HEK293 cells (rat, UniProt Q8K3Y7 1-252) (assay: cell-based or functional assay).
T2 sequence: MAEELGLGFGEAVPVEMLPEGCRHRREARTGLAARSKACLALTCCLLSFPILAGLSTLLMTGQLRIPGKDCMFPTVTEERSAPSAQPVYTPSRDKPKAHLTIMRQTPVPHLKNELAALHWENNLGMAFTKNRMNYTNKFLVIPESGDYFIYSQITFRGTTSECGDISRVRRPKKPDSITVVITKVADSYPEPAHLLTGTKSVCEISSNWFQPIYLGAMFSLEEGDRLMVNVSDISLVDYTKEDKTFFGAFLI

Binder | IC50, reporter + 10,000 TL1A cells [nM]
B2 | 3.99
B6 | 95
B4 | 190

These binders were tested against T3, mouse TL1A, soluble, CHO-expressed, residues 76-252 of SEQ ID NO:250 with N-terminal His6-tag (mouse, UniProt Q5UBV8 76-252) (assay: SPR 25C, mAb captured).
T3 construct: also called mTL1A; mTL1A (CHO)
T3 sequence: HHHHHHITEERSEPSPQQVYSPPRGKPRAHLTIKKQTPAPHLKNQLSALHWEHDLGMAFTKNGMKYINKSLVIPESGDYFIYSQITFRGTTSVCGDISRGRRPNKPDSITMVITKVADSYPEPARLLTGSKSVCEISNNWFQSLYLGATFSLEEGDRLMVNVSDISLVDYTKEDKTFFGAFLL
How it was run: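 Biacore T100 SPR with captured mAb and soluble TL1A/Fhm analyte; ka and kd fitted to a 1:1 model assuming monomeric TL1A. KD = kd/ka; t1/2 (min) = ln2/(60·kd).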

Binder | binding result | Kd [nM] | t1/2 [h]
B5 | no binding (tested: up to 100 nM) |  | 
B1 |  | 0.194 | 0.767
B3 | no binding (tested: up to 100 nM) |  | 
B6 | no binding (tested: up to 100 nM) |  | 

These binders were tested against T1, full length human TL1A expressed on … (assay: flow, HEK293/hTL1A, mAb 0.1 ug/ml + 0.1 ug/ml soluble hTL1A).
Protocol: as §1

Binder | MFI
B1 | 132
B2 | 51.1
B3 | 60.2
B4 | 84.5

Each binder was assayed against T1, full length human TL1A expressed on … (assay: flow, HEK293/hTL1A, mAb 0.1 ug/ml + 3 ug/ml soluble hTL1A).
Protocol: as §1

Binder | MFI
B1 | 22.6
B2 | 28.9
B3 | 23.6
B4 | 34.9

These binders were tested against T4, human TL1A, soluble, CHO-expressed, residues 72-251 of SEQ ID NO:244 with N-terminal His6-tag (human, UniProt O95150 72-251) (assay: SPR 37C, mAb captured; kd set at 1e-6 1/s).
T4 construct: also called hTL1A; hTL1A (CHO)
T4 sequence: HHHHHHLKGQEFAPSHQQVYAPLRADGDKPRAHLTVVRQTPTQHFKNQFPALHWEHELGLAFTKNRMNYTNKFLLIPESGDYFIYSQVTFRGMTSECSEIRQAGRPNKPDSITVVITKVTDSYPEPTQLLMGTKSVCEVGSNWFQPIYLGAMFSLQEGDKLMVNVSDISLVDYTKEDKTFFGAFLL
Protocol: Measurements were conducted on a T100 BIACORE™ instrument. […] Kinetic association (kₐ) and dissociation (kd) rate constants were determined by fitting the data to a 1:1 binding model using BIAevaluation 4.1 curve fitting software (BIAcore Life Sciences). Molar concentrations of TL1A/Fhm used in the data fitting assumed a monomeric state for TL1A in solution. Binding dissociation equilibrium constants (KD) and dissociative half-lives (t_{1/2}) were calculated from the kinetic rate constants as: KD (M)=kd/kₐ; and t_{1/2} (min)=[In2/(60*kd)].

Binder | Kd [nM] | t1/2 [h]
B1 | ≤ 0.001 | ≥ 192
B9 | ≤ 0.000925 | ≥ 192
B7 | ≤ 0.00437 | ≥ 192
B10 | ≤ 0.0138 | ≥ 192

These binders were tested against T1, full length human TL1A expressed on … (assay: flow, HEK293/hTL1A, mAb 1 ug/ml + 0.1 ug/ml soluble hTL1A).
Protocol: as §1

Binder | MFI
B5 | 327
B6 | 97.2
B7 | 79.4
B8 | 93.1
